Starred links: 1 amine or outer side, 2 acyl side, 3 side chain; linkers in the order of their positions; H or OH if unused. Non-standard residues stand in square brackets, D forms with d. Groups on a side chain read outwards from the residue. No end group written: not given here. *: point of attachment. C20 diacid = O=C(O)CCCCCCCCCCCCCCCCCCC(=O)*; C18 diacid = O=C(O)CCCCCCCCCCCCCCCCC(=O)*; γGlu = O=C(O)[C@H](CCC(=O)[*:2])N[*:1]; αMeF = C[C@](N)(Cc1ccccc1)C(=O)O; AEEA = NCCOCCOCC(=O)O; Aib = CC(C)(N)C(=O)O
B1: Peptide 490 (peptide)
peptide: H[Aib]QGTFTSDVSK[αMeF]LDTK([AEEA-AEEA-γGlu-C20 diacid])RARDFVQWLL[Aib]TE-NH2
modifications: N-terminus assumed
SMILES: CC(C)C[C@H](NC(=O)[C@H](Cc1c[nH]c2ccccc12)NC(=O)[C@H](CCC(N)=O)NC(=O)[C@@H](NC(=O)[C@H](Cc1ccccc1)NC(=O)[C@H](CC(=O)O)NC(=O)[C@H](CCCNC(=N)N)NC(=O)[C@H](C)NC(=O)[C@H](CCCNC(=N)N)NC(=O)[C@H](CCCCNC(=O)COCCOCCNC(=O)COCCOCCNC(=O)CC[C@H](NC(=O)CCCCCCCCCCCCCCCCCCC(=O)O)C(=O)O)NC(=O)[C@@H](NC(=O)[C@H](CC(=O)O)NC(=O)[C@H](CC(C)C)NC(=O)[C@](C)(Cc1ccccc1)NC(=O)[C@H](CCCCN)NC(=O)[C@H](CO)NC(=O)[C@@H](NC(=O)[C@H](CC(=O)O)NC(=O)[C@H](CO)NC(=O)[C@@H](NC(=O)[C@H](Cc1ccccc1)NC(=O)[C@@H](NC(=O)CNC(=O)[C@H](CCC(N)=O)NC(=O)C(C)(C)NC(=O)[C@@H](N)Cc1c[nH]cn1)[C@@H](C)O)[C@@H](C)O)C(C)C)[C@@H](C)O)C(C)C)C(=O)N[C@@H](CC(C)C)C(=O)NC(C)(C)C(=O)N[C@H](C(=O)N[C@@H](CCC(=O)O)C(N)=O)[C@@H](C)O
B2: Peptide 495 (peptide)
peptide: H[Aib]QGTFTSDVSK[αMeF]LDTK([AEEA-AEEA-γGlu-C18 diacid])RAQDFVRWLLR[Aib]K-NH2
modifications: N-terminus assumed
SMILES: CC(C)C[C@H](NC(=O)[C@H](Cc1c[nH]c2ccccc12)NC(=O)[C@H](CCCNC(=N)N)NC(=O)[C@@H](NC(=O)[C@H](Cc1ccccc1)NC(=O)[C@H](CC(=O)O)NC(=O)[C@H](CCC(N)=O)NC(=O)[C@H](C)NC(=O)[C@H](CCCNC(=N)N)NC(=O)[C@H](CCCCNC(=O)COCCOCCNC(=O)COCCOCCNC(=O)CC[C@H](NC(=O)CCCCCCCCCCCCCCCCC(=O)O)C(=O)O)NC(=O)[C@@H](NC(=O)[C@H](CC(=O)O)NC(=O)[C@H](CC(C)C)NC(=O)[C@](C)(Cc1ccccc1)NC(=O)[C@H](CCCCN)NC(=O)[C@H](CO)NC(=O)[C@@H](NC(=O)[C@H](CC(=O)O)NC(=O)[C@H](CO)NC(=O)[C@@H](NC(=O)[C@H](Cc1ccccc1)NC(=O)[C@@H](NC(=O)CNC(=O)[C@H](CCC(N)=O)NC(=O)C(C)(C)NC(=O)[C@@H](N)Cc1c[nH]cn1)[C@@H](C)O)[C@@H](C)O)C(C)C)[C@@H](C)O)C(C)C)C(=O)N[C@@H](CC(C)C)C(=O)N[C@@H](CCCNC(=N)N)C(=O)NC(C)(C)C(=O)N[C@@H](CCCCN)C(N)=O
B3: Peptide 493 (peptide)
peptide: H[Aib]QGTFTSDVSK[αMeF]LDTK([AEEA-AEEA-γGlu-C18 diacid])RAQDFVRWLLR[Aib]K-OH
modifications: N-terminus assumed
SMILES: CC(C)C[C@H](NC(=O)[C@H](Cc1c[nH]c2ccccc12)NC(=O)[C@H](CCCNC(=N)N)NC(=O)[C@@H](NC(=O)[C@H](Cc1ccccc1)NC(=O)[C@H](CC(=O)O)NC(=O)[C@H](CCC(N)=O)NC(=O)[C@H](C)NC(=O)[C@H](CCCNC(=N)N)NC(=O)[C@H](CCCCNC(=O)COCCOCCNC(=O)COCCOCCNC(=O)CC[C@H](NC(=O)CCCCCCCCCCCCCCCCC(=O)O)C(=O)O)NC(=O)[C@@H](NC(=O)[C@H](CC(=O)O)NC(=O)[C@H](CC(C)C)NC(=O)[C@](C)(Cc1ccccc1)NC(=O)[C@H](CCCCN)NC(=O)[C@H](CO)NC(=O)[C@@H](NC(=O)[C@H](CC(=O)O)NC(=O)[C@H](CO)NC(=O)[C@@H](NC(=O)[C@H](Cc1ccccc1)NC(=O)[C@@H](NC(=O)CNC(=O)[C@H](CCC(N)=O)NC(=O)C(C)(C)NC(=O)[C@@H](N)Cc1c[nH]cn1)[C@@H](C)O)[C@@H](C)O)C(C)C)[C@@H](C)O)C(C)C)C(=O)N[C@@H](CC(C)C)C(=O)N[C@@H](CCCNC(=N)N)C(=O)NC(C)(C)C(=O)N[C@@H](CCCCN)C(=O)O
B4: Peptide 492 (peptide)
peptide: H[Aib]QGTFTSDVSK[αMeF]LDTK([AEEA-AEEA-γGlu-C20 diacid])RARDFVRWLL[Aib]TE-OH
modifications: N-terminus assumed
SMILES: CC(C)C[C@H](NC(=O)[C@H](Cc1c[nH]c2ccccc12)NC(=O)[C@H](CCCNC(=N)N)NC(=O)[C@@H](NC(=O)[C@H](Cc1ccccc1)NC(=O)[C@H](CC(=O)O)NC(=O)[C@H](CCCNC(=N)N)NC(=O)[C@H](C)NC(=O)[C@H](CCCNC(=N)N)NC(=O)[C@H](CCCCNC(=O)COCCOCCNC(=O)COCCOCCNC(=O)CC[C@H](NC(=O)CCCCCCCCCCCCCCCCCCC(=O)O)C(=O)O)NC(=O)[C@@H](NC(=O)[C@H](CC(=O)O)NC(=O)[C@H](CC(C)C)NC(=O)[C@](C)(Cc1ccccc1)NC(=O)[C@H](CCCCN)NC(=O)[C@H](CO)NC(=O)[C@@H](NC(=O)[C@H](CC(=O)O)NC(=O)[C@H](CO)NC(=O)[C@@H](NC(=O)[C@H](Cc1ccccc1)NC(=O)[C@@H](NC(=O)CNC(=O)[C@H](CCC(N)=O)NC(=O)C(C)(C)NC(=O)[C@@H](N)Cc1c[nH]cn1)[C@@H](C)O)[C@@H](C)O)C(C)C)[C@@H](C)O)C(C)C)C(=O)N[C@@H](CC(C)C)C(=O)NC(C)(C)C(=O)N[C@H](C(=O)N[C@@H](CCC(=O)O)C(=O)O)[C@@H](C)O
B5: Peptide 491 (peptide)
peptide: H[Aib]QGTFTSDVSK[αMeF]LDTK([AEEA-AEEA-γGlu-C18 diacid])RARDFVRWLL[Aib]TE-OH
modifications: N-terminus assumed
SMILES: CC(C)C[C@H](NC(=O)[C@H](Cc1c[nH]c2ccccc12)NC(=O)[C@H](CCCNC(=N)N)NC(=O)[C@@H](NC(=O)[C@H](Cc1ccccc1)NC(=O)[C@H](CC(=O)O)NC(=O)[C@H](CCCNC(=N)N)NC(=O)[C@H](C)NC(=O)[C@H](CCCNC(=N)N)NC(=O)[C@H](CCCCNC(=O)COCCOCCNC(=O)COCCOCCNC(=O)CC[C@H](NC(=O)CCCCCCCCCCCCCCCCC(=O)O)C(=O)O)NC(=O)[C@@H](NC(=O)[C@H](CC(=O)O)NC(=O)[C@H](CC(C)C)NC(=O)[C@](C)(Cc1ccccc1)NC(=O)[C@H](CCCCN)NC(=O)[C@H](CO)NC(=O)[C@@H](NC(=O)[C@H](CC(=O)O)NC(=O)[C@H](CO)NC(=O)[C@@H](NC(=O)[C@H](Cc1ccccc1)NC(=O)[C@@H](NC(=O)CNC(=O)[C@H](CCC(N)=O)NC(=O)C(C)(C)NC(=O)[C@@H](N)Cc1c[nH]cn1)[C@@H](C)O)[C@@H](C)O)C(C)C)[C@@H](C)O)C(C)C)C(=O)N[C@@H](CC(C)C)C(=O)NC(C)(C)C(=O)N[C@H](C(=O)N[C@@H](CCC(=O)O)C(=O)O)[C@@H](C)O

biological target: human glucagon receptor (human, UniProt P47871); assay: cell-based or functional assay

Binder | cAMP production EC50
B1 | 396 pM
B2 | 380 pM
B3 | 166 pM
B4 | 374 pM
B5 | 232 pM
H[Aib]QGTFTSDVSK[αMeF]LDTK([AEEA-AEEA-γGlu-C20 diacid])RAQDFVRWLLR[Aib]K-OH [Peptide 494] | 212 pM

biological target: human GLP-1 receptor (human, UniProt P43220); assay: cell-based or functional assay

Binder | cAMP production EC50
B1 | 69 pM
B2 | 23.2 pM
B3 | 23.4 pM
B4 | 212 pM
B5 | 73.6 pM
H[Aib]QGTFTSDVSK[αMeF]LDTK([AEEA-AEEA-γGlu-C20 diacid])RAQDFVRWLLR[Aib]K-OH [Peptide 494] | 98.7 pM

— patent publication US12630600B2 (MEDIMMUNE LIMITED, priority 2022, dated 2026)
